For two substances, stoichiometry N results are on record in article PMC8325310.

Values joined by “and” are separate entries in the source; they are usually repeats but may differ in a detail not shown here. Equal entries are not always repeated.

In general, stoichiometry N refers to the number of molecules, sites or subunits per partner or assembly.

The target in assay [1] is NT*-Bri2 BRICHOS (human). Nature of the assay: SEC; IMAC-purified NT*-Bri2 BRICHOS concentrated to 3.4 mg/mL, Superdex 200 26/600, 20 mM NaPi pH 8.0 with 0.2 mM EDTA; four peaks resolved (monomer, dimer, tetramer, higher oligomers). A general note: In gel filtration, larger molecules generally elute earlier.
For assay [2], the target named is recombinant human (rh) Bri2 BRICHOS (human). Nature of the assay: SEC; Bri2 BRICHOS species after thrombin cleavage and reverse IMAC, Superdex 200 26/600 (oligomer, tetramer, dimer) or Superdex 75 26/600 (monomer), 20 mM NaPi pH 8.0 with 0.2 mM EDTA.
Assay [3] shares this target. Nature of the assay: SDS-PAGE under reducing and non-reducing conditions; SEC-isolated rh Bri2 BRICHOS species analysed by SDS-PAGE, reducing and non-reducing.

NT*-Bri2 BRICHOS, sequence (Q9Y287 132-236): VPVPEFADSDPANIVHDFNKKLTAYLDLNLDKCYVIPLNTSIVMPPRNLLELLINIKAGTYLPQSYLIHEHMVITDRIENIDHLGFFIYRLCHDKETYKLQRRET

On to NT*-Bri2 BRICHOS (domain or fragment), for which the stoichiometry N in assay [1] was 2 and 4.
As to “recombinant human (rh) Bri2 BRICHOS (domain or fragment)”, the stoichiometry N in assay [2] was 2 and 4; in assay [3], 6.
